The values below are quoted from earlier work in publication PMC4072998.

Data set [1] addresses T1, Glu14 (UniProt position 14, GAILAEVIGTT). Put plainly: other.
The target in data set [2] is T1, Glu14. Put plainly: kinetics. Conditions: pre-equilibrium; free protein binding substrate.
For another data set, the target named is Asp14 (UniProt position 14, GAILADVIGTT). The experiment in a line: kinetics. The note with it: pre-equilibrium; free protein binding substrate.

For the substance “EmrE (small multidrug resistance transporter) (Escherichia coli)”, the pKa (usually the pH at which an ionisable group is half protonated) in the data set with Glu14 [1] (equilibrium, substrate-induced deprotonation) is 8.3-8.5; in the data set with Glu14 [1] (substrate-free protein competing for H+ versus TPP+), 7-8; with Glu14 [2] it was ~7.3.

Turning to “EmrE E14D mutant (Escherichia coli; E14D)”, the pKa with Asp14 is given as 5.8.
